Results published in PMC4351158 (Structure (London, England : 1993), 2015).

B1: WT DegS: Wild-type E. coli DegS (residues 27–355) with N-terminal His6 tag replacing the membrane anchor (protein)
chain: RSLNPLSTPQFDSTDETPASYNLAVRRAAPAVVNVYNRGLNTNSHNQLEIRTLGSGVIMDQRGYIITNKHVINDADQIIVALQDGRVFEALLVGSDSLTDLAVLKINATGGLPTIPINARRVPHIGDVVLAIGNPYNLGQTITQGIISATGRIGLNPTGRQNFLQTDASINHGNSGGALVNSLGELMGINTLSFDKSNDGETPEGIGFAIPFQLATKIMDKLIRDGRVIRGYIGIGGREIAPLHAQGGGIDQLQGIVVNEVSPDGPAANAGIQVNDLIISVDNKPAISALETMDQVAEIRPGSVIPVVVMRDDKQLTLQVTIQEYPATN
modifications: left off: His6, N-terminal, state not stated
B2: H198P/E230A (protein, UniProt P0AEE3 1-355, looked up, variant H198P E230A)
Serine endoprotease DegS: MFVKLLRSVAIGLIVGAILLVAMPSLRSLNPLSTPQFDSTDETPASYNLAVRRAAPAVVNVYNRGLNTNSHNQLEIRTLGSGVIMDQRGYIITNKHVINDADQIIVALQDGRVFEALLVGSDSLTDLAVLKINATGGLPTIPINARRVPHIGDVVLAIGNPYNLGQTITQGIISATGRIGLNPTGRQNFLQTDASINPGNSGGALVNSLGELMGINTLSFDKSNDGETPAGIGFAIPFQLATKIMDKLIRDGRVIRGYIGIGGREIAPLHAQGGGIDQLQGIVVNEVSPDGPAANAGIQVNDLIISVDNKPAISALETMDQVAEIRPGSVIPVVVMRDDKQLTLQVTIQEYPATN

How the values were obtained:
DegS = conditions: substrate-saturated; ref Sohn and Sauer, 2009; cited from earlier work
[1] = test system: periplasmic domain of RseA; assay: Cleavage of 35S-labeled RseA periplasmic domain by DegS variants; assay type: biochemical, E. coli; conditions: H198P background; compared to H198P

Molecule | DegS in the active conformation (DegS) | YYF-stimulated cleavage activity, in words [1]
B1 | ~ 0.3% | 
B2 |  | activity within error of H198P
